Assay results reported in patent publication US20200262877A1, “ION CHANNEL-BINDING PEPTIDES AND METHODS OF USE THEREOF” (priority 2017, published 2020).

Legend:
5HT3a = target: T1, 5HT3a (Homo sapiens, UniProt P46098); test: Ion channel panel (IonWorks Barracuda): 5HT3a; type: cell-based
T1 construct: host or cells: HEK293 or CHO
T1 sequence (P46098 whole entry, looked up): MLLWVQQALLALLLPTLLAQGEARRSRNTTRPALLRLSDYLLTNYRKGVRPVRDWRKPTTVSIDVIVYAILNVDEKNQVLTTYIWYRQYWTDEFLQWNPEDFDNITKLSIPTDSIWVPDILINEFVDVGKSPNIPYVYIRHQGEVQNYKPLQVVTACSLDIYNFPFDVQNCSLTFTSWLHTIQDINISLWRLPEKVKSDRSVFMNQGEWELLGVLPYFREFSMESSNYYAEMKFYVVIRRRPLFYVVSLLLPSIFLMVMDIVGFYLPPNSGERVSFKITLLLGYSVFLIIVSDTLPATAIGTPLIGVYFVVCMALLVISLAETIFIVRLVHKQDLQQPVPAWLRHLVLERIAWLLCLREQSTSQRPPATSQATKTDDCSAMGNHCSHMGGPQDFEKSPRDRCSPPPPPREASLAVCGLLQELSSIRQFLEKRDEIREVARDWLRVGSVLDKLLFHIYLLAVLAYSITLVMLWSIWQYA
Method in brief: (§1)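 Peptides were tested in duplicate at final 20 μM and 200 nM, with concentration set by amino acid analysis, in HEPES-buffered saline. They were applied for at least 5 min to HEK293 or CHO cells transfected with each channel. Currents were expressed as % inhibition, 1-(Ipeptide/Icontrol)×100, or % activation, Ipeptide/Icontrol×100, against a channel-matched reference compound.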

α3β4 = target: T2, α3β4 (Homo sapiens, UniProt P30926+P32297); test: Ion channel panel (IonWorks Barracuda): α3β4; type: cell-based; details: 100% = no change, <100% = inhibition
T2 construct: host or cells: HEK293 or CHO
Method in brief: as §1

α4β2 = target: T3, α4β2 (Homo sapiens, UniProt P17787+P43681); test: Ion channel panel (IonWorks Barracuda): α4β2; type: cell-based; details: 100% = no change, <100% = inhibition
T3 construct: host or cells: HEK293 or CHO
Method in brief: as §1

Cav2.1 = target: T4, Cav2.1 (Homo sapiens, UniProt O00555); test: cell-based; details: 100% = no change, <100% = inhibition
T4 construct: host or cells: HEK293 or CHO
Method in brief: as §1

Cav2.2 = target: T5, Cav2.2 (Homo sapiens, UniProt Q00975); test: cell-based; details: 100% = no change, <100% = inhibition
T5 construct: host or cells: HEK293 or CHO
Method in brief: as §1

Kv2.1 = target: T6, Kv2.1 (Homo sapiens, UniProt Q14721); test: cell-based; details: 100% = no change, <100% = inhibition
T6 construct: host or cells: HEK293 or CHO
Method in brief: as §1

GABA = test: Ion channel panel (IonWorks Barracuda): GABA; type: cell-based; details: 100% = no change, <100% = inhibition
Method in brief: as §1

Nav1.5 = Nav1.5 (Homo sapiens, UniProt Q14524); test: in vitro; details: 100% = no change; for Activity of Nav1.5 with peptide, expressed as a percentage of the reference compound: peptide at 0.2 μM; for Activity of Nav1.5 with peptide (percentage of the reference compound): peptide at 20 μM
Method in brief: as §1

hERG = hERG (Homo sapiens, UniProt Q12809); test: in vitro; details: 100% = no change, <100% = inhibition
Method in brief: as §1

Kir2.1 = target: T7, Kir2.1 (Homo sapiens, UniProt P63252); test: Ion channel panel (IonWorks Barracuda): Kir2.1; type: cell-based; details: 100% = no change, <100% = inhibition
T7 construct: host or cells: HEK293 or CHO
Method in brief: as §1

Kv1.1 = target: T8, Kv1.1 (Homo sapiens, UniProt Q09470); test: cell-based; type: cell-based; details: 100% = no change, <100% = inhibition
T8 construct: host or cells: HEK293 or CHO
Method in brief: as §1

Kv1.2 = target: T9, Kv1.2 (Homo sapiens, UniProt P16389); test: cell-based; type: cell-based; details: 100% = no change, <100% = inhibition
T9 construct: host or cells: HEK293 or CHO
Method in brief: as §1

Kv1.3 = target: T10, Kv1.3 (Homo sapiens, UniProt P22001); test: cell-based; type: cell-based; details: 100% = no change, <100% = inhibition
T10 construct: host or cells: HEK293 or CHO
Method in brief: as §1

Nav1.7 = target: T11, Nav1.7 (Homo sapiens, UniProt Q15858); test: cell-based; type: cell-based; details: 100% = no change; for Activity of Nav1.7 with peptide, expressed as a percentage of the reference compound: peptide at 0.2 μM; for Activity of Nav1.7 with peptide (percentage of the reference compound): peptide at 20 μM
T11 construct: host or cells: HEK293 or CHO

NR2A = target: T12, NR2A (Homo sapiens, UniProt Q12879); test: Ion channel panel (IonWorks Barracuda): NR2A; type: cell-based; details: 100% = no change, <100% = inhibition
T12 construct: host or cells: HEK293 or CHO
Method in brief: as §1

NR2B = target: T13, NR2B (Homo sapiens, UniProt Q13224); test: Ion channel panel (IonWorks Barracuda): NR2B; type: cell-based; details: 100% = no change, <100% = inhibition
T13 construct: host or cells: HEK293 or CHO
Method in brief: as §1

TRPA1 = target: T14, TRPA1 (Homo sapiens, UniProt O75762); test: Ion channel panel (IonWorks Barracuda): TRPA1; type: cell-based; details: 100% = no change, <100% = inhibition
T14 construct: host or cells: HEK293 or CHO
Method in brief: as §1

TRPV1 = target: T15, TRPV1 (Homo sapiens, UniProt Q8NER1); test: Ion channel panel (IonWorks Barracuda): TRPV1; type: cell-based; details: 100% = no change, <100% = inhibition
T15 construct: host or cells: HEK293 or CHO
Method in brief: as §1

[1] = first of two Nav1.5 columns (probably TP1)
[2] = second of two Nav1.5 columns (probably TP2)
[3] = first of two Nav1.7 columns (probably TP1)
[4] = second of two Nav1.7 columns (probably TP2)

T11 sequence (Q15858 whole entry): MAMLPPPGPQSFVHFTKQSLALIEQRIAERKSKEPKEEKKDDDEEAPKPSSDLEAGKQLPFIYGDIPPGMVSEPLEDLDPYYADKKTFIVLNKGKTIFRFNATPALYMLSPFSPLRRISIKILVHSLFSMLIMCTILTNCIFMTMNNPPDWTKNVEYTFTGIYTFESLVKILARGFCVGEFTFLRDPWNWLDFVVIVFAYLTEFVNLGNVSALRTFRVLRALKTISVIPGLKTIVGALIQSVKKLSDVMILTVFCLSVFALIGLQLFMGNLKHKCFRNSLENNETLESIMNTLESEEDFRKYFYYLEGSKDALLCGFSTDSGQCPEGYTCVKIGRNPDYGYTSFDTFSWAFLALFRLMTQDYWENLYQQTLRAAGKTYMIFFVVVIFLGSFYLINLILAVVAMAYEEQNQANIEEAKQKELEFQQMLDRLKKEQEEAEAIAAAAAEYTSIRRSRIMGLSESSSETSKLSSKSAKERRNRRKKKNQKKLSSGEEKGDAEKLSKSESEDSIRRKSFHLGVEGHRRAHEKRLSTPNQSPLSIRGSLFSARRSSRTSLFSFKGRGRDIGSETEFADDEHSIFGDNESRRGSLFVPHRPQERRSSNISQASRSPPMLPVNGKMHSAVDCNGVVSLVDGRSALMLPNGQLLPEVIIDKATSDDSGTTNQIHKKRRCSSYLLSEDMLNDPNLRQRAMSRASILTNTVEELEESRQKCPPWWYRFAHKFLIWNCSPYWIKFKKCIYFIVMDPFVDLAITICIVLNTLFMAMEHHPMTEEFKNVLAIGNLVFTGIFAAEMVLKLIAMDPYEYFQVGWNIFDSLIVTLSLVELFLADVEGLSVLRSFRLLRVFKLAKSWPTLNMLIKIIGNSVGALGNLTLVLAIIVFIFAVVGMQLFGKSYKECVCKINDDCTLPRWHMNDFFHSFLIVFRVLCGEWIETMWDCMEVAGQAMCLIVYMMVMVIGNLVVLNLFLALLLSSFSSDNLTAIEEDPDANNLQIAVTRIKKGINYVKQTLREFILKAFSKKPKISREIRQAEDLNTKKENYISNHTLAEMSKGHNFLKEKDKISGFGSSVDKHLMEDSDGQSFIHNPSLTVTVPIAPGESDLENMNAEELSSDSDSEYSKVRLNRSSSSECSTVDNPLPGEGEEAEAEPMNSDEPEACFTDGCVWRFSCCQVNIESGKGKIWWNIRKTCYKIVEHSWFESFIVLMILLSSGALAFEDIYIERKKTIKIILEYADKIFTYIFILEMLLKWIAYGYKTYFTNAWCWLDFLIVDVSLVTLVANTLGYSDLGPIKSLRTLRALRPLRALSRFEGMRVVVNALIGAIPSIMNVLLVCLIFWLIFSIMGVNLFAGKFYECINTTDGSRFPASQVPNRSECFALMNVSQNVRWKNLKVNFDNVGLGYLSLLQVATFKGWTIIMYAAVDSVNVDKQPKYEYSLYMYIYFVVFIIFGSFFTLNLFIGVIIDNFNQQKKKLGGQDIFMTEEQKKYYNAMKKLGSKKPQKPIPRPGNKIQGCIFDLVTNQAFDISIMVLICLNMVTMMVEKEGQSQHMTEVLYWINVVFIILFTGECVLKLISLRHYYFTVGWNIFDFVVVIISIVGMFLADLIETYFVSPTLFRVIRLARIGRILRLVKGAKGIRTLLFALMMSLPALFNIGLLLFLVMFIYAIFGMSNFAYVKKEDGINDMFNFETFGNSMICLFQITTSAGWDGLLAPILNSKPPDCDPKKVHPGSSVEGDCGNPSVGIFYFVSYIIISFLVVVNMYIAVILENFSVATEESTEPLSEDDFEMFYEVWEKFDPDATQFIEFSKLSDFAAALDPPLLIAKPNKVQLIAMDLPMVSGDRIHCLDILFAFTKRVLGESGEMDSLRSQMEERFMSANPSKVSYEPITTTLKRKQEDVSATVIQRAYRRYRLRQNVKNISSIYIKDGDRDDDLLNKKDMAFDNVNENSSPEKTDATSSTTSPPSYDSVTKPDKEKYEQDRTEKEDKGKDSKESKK
Nav1.5, sequence (Q14524 whole entry): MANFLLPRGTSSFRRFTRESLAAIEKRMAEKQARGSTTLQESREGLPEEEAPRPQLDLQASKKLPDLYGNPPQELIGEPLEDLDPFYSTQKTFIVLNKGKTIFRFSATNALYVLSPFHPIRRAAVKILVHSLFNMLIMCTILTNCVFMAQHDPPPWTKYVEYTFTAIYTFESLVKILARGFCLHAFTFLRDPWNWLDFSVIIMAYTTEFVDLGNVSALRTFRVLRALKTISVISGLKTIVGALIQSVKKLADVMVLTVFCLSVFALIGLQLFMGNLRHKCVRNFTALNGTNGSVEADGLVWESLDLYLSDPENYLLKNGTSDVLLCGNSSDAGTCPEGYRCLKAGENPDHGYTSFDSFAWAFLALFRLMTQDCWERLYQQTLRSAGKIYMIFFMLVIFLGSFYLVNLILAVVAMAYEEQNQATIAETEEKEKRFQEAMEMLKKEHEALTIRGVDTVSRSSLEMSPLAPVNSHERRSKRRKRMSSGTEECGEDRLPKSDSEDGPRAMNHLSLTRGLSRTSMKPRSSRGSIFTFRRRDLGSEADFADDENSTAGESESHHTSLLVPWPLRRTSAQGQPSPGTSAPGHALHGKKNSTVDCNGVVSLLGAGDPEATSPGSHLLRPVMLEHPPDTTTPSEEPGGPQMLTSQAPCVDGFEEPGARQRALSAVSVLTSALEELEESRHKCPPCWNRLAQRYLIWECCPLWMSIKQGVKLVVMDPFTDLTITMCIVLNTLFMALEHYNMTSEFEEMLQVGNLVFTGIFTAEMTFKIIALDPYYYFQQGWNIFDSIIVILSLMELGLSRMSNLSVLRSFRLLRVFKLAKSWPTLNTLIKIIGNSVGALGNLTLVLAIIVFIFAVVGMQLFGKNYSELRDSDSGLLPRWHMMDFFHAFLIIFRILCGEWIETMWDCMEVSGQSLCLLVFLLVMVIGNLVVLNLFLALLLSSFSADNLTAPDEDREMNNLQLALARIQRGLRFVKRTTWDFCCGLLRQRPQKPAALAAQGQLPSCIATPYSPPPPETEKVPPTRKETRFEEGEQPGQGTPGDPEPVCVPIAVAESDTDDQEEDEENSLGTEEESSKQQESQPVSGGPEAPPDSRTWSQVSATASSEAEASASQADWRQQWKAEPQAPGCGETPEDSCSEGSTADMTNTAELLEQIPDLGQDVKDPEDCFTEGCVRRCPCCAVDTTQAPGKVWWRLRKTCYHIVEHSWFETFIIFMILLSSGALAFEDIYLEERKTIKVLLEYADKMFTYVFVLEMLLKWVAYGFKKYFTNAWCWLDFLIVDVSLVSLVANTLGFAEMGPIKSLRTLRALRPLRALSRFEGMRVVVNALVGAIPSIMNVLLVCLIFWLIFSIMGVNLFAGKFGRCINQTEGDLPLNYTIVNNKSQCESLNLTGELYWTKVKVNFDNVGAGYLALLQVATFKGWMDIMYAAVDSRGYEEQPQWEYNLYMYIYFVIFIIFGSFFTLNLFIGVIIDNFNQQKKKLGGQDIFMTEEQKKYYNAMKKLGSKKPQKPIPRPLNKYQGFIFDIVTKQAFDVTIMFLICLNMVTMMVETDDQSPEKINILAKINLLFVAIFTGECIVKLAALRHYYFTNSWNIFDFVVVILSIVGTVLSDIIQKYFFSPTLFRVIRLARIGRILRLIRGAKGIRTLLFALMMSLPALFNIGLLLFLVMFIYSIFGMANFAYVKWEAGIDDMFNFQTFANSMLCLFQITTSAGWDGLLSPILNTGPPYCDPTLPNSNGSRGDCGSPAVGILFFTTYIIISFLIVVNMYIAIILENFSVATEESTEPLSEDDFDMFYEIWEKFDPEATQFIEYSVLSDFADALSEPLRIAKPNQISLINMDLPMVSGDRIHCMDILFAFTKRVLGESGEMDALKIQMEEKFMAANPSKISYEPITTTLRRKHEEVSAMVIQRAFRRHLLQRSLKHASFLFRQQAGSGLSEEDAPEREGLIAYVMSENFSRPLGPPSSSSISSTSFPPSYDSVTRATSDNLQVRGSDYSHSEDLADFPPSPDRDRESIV
T2 sequence (P30926 22-498): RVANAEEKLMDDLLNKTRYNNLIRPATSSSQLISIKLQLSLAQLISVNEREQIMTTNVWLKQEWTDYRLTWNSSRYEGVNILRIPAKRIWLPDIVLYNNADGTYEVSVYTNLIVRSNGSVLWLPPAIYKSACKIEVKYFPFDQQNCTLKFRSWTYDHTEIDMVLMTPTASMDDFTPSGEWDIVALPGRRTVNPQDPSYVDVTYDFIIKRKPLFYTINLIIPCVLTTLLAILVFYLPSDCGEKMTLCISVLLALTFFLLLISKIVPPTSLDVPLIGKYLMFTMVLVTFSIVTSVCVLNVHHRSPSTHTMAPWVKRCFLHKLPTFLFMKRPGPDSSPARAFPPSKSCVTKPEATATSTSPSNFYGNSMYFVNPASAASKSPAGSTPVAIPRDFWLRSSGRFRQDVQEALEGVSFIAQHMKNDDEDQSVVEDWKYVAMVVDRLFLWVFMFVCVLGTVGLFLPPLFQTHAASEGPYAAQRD
T2 sequence (P32297 32-505): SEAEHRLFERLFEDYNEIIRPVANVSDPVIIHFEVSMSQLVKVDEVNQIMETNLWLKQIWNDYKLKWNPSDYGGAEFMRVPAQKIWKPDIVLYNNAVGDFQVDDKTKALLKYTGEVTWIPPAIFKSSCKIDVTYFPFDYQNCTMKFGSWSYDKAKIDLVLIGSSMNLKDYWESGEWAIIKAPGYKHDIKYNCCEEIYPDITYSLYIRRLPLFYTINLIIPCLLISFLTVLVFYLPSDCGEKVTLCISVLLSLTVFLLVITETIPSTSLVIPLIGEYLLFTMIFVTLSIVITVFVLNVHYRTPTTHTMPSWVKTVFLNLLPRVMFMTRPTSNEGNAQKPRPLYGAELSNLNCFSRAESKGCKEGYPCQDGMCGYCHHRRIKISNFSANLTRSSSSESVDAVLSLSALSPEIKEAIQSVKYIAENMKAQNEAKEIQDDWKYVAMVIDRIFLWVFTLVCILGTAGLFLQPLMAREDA

25 (GSACLAEYQKCEGSTVPCCPGLSCSAGRFRKTKLCTK) [compound 25]
Activity of 5HT3a with peptide (percentage of the reference compound) (5HT3a): 94% | Activity of 5HT3a with peptide, expressed as a percentage of the reference compound (5HT3a): 82% | Activity of a3b4 with peptide, expressed as a percentage of the reference compound (α3β4; peptide at 0.2 μM): 105% | Activity of a3b4 with peptide (percentage of the reference compound) (α3β4; peptide at 20 μM): 91% | Activity of a4b2 with peptide, expressed as a percentage of the reference compound (α4β2; peptide at 0.2 μM): 73% | Activity of a4b2 with peptide (percentage of the reference compound) (α4β2; peptide at 20 μM): 75% | Activity of Cav2.1 with peptide, expressed as a percentage of the reference compound (Cav2.1; peptide at 0.2 μM): 89% | Activity of Cav2.1 with peptide (percentage of the reference compound) (Cav2.1; peptide at 20 μM): 109% | Activity of Cav2.2 with peptide, expressed as a percentage of the reference compound (Cav2.2; peptide at 0.2 μM): 111% | Activity of Cav2.2 with peptide (percentage of the reference compound) (Cav2.2; peptide at 20 μM): 111% | Activity of Kv2.1 with peptide, expressed as a percentage of the reference compound (Kv2.1; peptide at 0.2 μM): 88% | Activity of Kv2.1 with peptide (percentage of the reference compound) (Kv2.1; peptide at 20 μM): 107% | Activity of GABA with peptide, expressed as a percentage of the reference compound (GABA; peptide at 0.2 μM): 111% | Activity of GABA with peptide (percentage of the reference compound) (GABA; peptide at 20 μM): 98% | Activity of Nav1.5 with peptide, expressed as a percentage of the reference compound (Nav1.5; [1]): 76% | Activity of Nav1.5 with peptide, expressed as a percentage of the reference compound (Nav1.5; [2]): 74% | Activity of Nav1.5 with peptide (percentage of the reference compound) (Nav1.5; [1]): 88% | Activity of Nav1.5 with peptide (percentage of the reference compound) (Nav1.5; [2]): 87% | Activity of hERG with peptide, expressed as a percentage of the reference compound (hERG; peptide at 0.2 μM): 76% | Activity of hERG with peptide (percentage of the reference compound) (hERG; peptide at 20 μM): 79% | Activity of Kir2.1 with peptide, expressed as a percentage of the reference compound (Kir2.1; peptide at 0.2 μM): 79% | Activity of Kir2.1 with peptide (percentage of the reference compound) (Kir2.1; peptide at 20 μM): 98% | Activity of Kv1.1 with peptide, expressed as a percentage of the reference compound (Kv1.1; peptide at 0.2 μM): 69% | Activity of Kv1.1 with peptide (percentage of the reference compound) (Kv1.1; peptide at 20 μM): 77% | Activity of Kv1.2 with peptide, expressed as a percentage of the reference compound (Kv1.2; peptide at 0.2 μM): 72% | Activity of Kv1.2 with peptide (percentage of the reference compound) (Kv1.2; peptide at 20 μM): 85% | Activity of Kv1.3 with peptide, expressed as a percentage of the reference compound (Kv1.3; peptide at 0.2 μM): 74% | Activity of Kv1.3 with peptide (percentage of the reference compound) (Kv1.3; peptide at 20 μM): 87% | Activity of Nav1.7 with peptide, expressed as a percentage of the reference compound (Nav1.7; [3]): 66% | Activity of Nav1.7 with peptide, expressed as a percentage of the reference compound (Nav1.7; [4]): 54% | Activity of Nav1.7 with peptide (percentage of the reference compound) (Nav1.7; [3]): 90% | Activity of Nav1.7 with peptide (percentage of the reference compound) (Nav1.7; [4]): 83% | Activity of NR2A with peptide, expressed as a percentage of the reference compound (NR2A; peptide at 0.2 μM): 94% | Activity of NR2A with peptide (percentage of the reference compound) (NR2A; peptide at 20 μM): 106% | Activity of NR2B with peptide, expressed as a percentage of the reference compound (NR2B; peptide at 0.2 μM): 99% | Activity of NR2B with peptide (percentage of the reference compound) (NR2B; peptide at 20 μM): 94% | Activity of TRPA1 with peptide, expressed as a percentage of the reference compound (TRPA1; peptide at 0.2 μM): 124% | Activity of TRPA1 with peptide (percentage of the reference compound) (TRPA1; peptide at 20 μM): 129% | Activity of TRPV1 with peptide, expressed as a percentage of the reference compound (TRPV1; peptide at 0.2 μM): 117% | Activity of TRPV1 with peptide (percentage of the reference compound) (TRPV1; peptide at 20 μM): 113%
